In a protein production outcome set (Wang et al. 2014):

Assay: label from the status in PepcDB records
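Further: failed if final PepcDB status was selected cloned or expressed and not failed if soluble or beyond.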

Row | Sequence | protein production
1 | MTAGLSAVVVGADRLGNIPDLLKGHNISITHHISGRDPSHQKKTLQLPSGTQLVILLTDFLGHNVMKTFRHAAQRGGIRVVACRRSVCSMQQALHQCGLCARSLEHHHHHH | not failed
2 | MTAHFRPAVYDLPRDGHTVFRWEHPPQQATVELERLQRKQSLAAAFRVFARLGFDMGGAGHITVRDPGRPDHFWVNPVGVYFGHVRVRDLLLVNPEGAVIEGEGALNLAAFAIHAALHEAHPEVVAAAHAHSLYGKAWSSLGRLLDPLTQDACAFYERHGLFDNFSGVVLEASEGVRIAAALAGRKALILQNHGLLTVGETVEAAVWRFIAMDNAAQTQLLAEAAGTPRPIPHEVARHTARQVGTEFGGWFSFQPYRERIVREEPDFLDLEHHHHHH | failed
3 | MTAHWRYLNSLQPLSNLFIQAALRRKVTGTQLPDLGLRSWIAVDNDKLEAYRKVCGFADSSLLPPTYPHALAFTLQMQLMTSPEFPFPLLGLIHLGNQIRTLRPLGGVSQLYISVQATDLRPHPKGATFTLLTQAEDGMGLLWEEESTLLCTAVHLEDAPVPMPEAYLRPLIELDRWRASAQIGREYAKVSGDYNPIHLSAASAKLFGFPRAIAHGMWLKARALAALEDHLPASNVQISVQFQKPVRLPADVTLSASAAGSHGEFRVEGQEGIVHMIGSWQPATD | failed
4 | MTALKICLIGGSGFIGRHLAAQLASRGHRITIASRRTGLPDFRVLPSAELVSADIHDPGQLAGLIAGHDAVVSMVGILHGSRAQFEKAHAQLPEKIVDACRRQGVRRLVHVSALGAAQDAPSDYQQTKALGELAVESSGLDWTILRPSVVFGHGDAFLNMFAGLQKRLPVLPLAGAGCKMAPVWVEDVARAVCECLARKETEGRKLDLAGPETYTLAQLARLAGRASGHPRPVFGLPYGLAMLQAALMEWLPGPTLMSRDNVRSLQWDNVSDQPFPSALLGFEPAALSALAPGWLAGRDRNDTASRYRAKAAR | failed
5 | MTALRQDIDPNGLLEYSVVYTDRALNHMSKAFQEVMNDLLSNLKTVYNAEAAVIIPGSGTYGMEAVARQLTIDEDCLIIRNGWFSYRWTQILEKGKFAKSSTVLTAERTEDTEAPKPFAPVDIETAVAKIKEDKSAIVYAPHVETSSGIILSEEYIKALSEAVHSVGGLLVIDCIASGCVWLDMKELGIDVLISAPQKGWSSTPCAGLVMLSAAAIKKVESTESNCFSLDLKQWLTIMRAYENGGHAYHATMPTDSLRQFRDAILEAKEIGFDILRDAQWELGNRVRKVLTDKGIESVAAEGFEAPGVVVSYTERDDMHKGSAFAEAGLQIAAGVPLKVGEPDNFKTFRLGLFGLDKLTDIDGTVERFEKALDEVLAK | not failed
6 | MTALTPLQRLWLTETVRLREEHAGPLEDQEANRLARNQGGDLATRIQNRALWLAQRDGLHSALLHWHQGARMALLALSVLAVISGAGLAFSALGSTQQPVNVFWALGSLLGINLILLLSWLAGLLFAGEHGASLGRLWLWLSEKFSRDAKAAQLPPALLLLLQRRKLNRWALGSLINGLWCLALFSAVVMLLLLLTTHRYSFVWESTLLGSDAFVAITNTLSALPRGLGFGAPSVASIQASTRDVYNTELIRQSWAIWLVVLVTIYGVLPRLLLMLFCRWRWKHGQARLQLDLNLPGYAQLRERLMPSSERLGVNDAAPEQLHRVEGGVSAQDSSGALLVAIELDNQRPWPPQLPESIKDAGILDSRESRSRLLEQMSRFPPARLVIACDPRRSPDRGSLGLIAELARNASATRVWLLQAPPGQALDADRLGDWHSALHKLQLPFADCAPLDWLENGHD | failed
7 | MTARDDETIAFYSGHATAYTSRGQAPDRPHLETFLARLRAGAKILELGCGGGQDSEYMLSAGFDVHPTDGTPDIAKAAQARLGIPVRTLLFENIEDAALYDAVWANACLLHVPRLALPGIIGRIHTALKPGGVFYASFKAGEVEGRDTFGRYYNYPSKAWLEETYGQFAWTEVEIEARQGSGYDKLPTDWLHVTATKALEHHHHHH | not failed
8 | MTARELLKIVVVGHVDHGKSTIIGRLLYDTKSVPEAAIERVKRISKEKGRPFEYAYLLDALEEEQKQGITIDTTQIKFSTPKRDYLIIDAPGHKEFLKNMVSGAANAEAALLVIDAAEGVQEQSKRHAYILSLLGIQKVYVIVNKMDMIEFSEKKFKEIKYEISTFLSKLNVYPQKYIPVSGFLGENIARKSDKMPWYKGETLLQALDLFEKDKELEDRPLRFPIQDVYKFDHRRVIAGRLESGRLKVGDEIKILPEGKVSKVKSIEFWPENNKKDEVVAGMSIGITIEDEFFNKRGEVIVHKNDNTLYVSDTFRANLFWLGKRNLVKNKTYKLKLVTQETECEIVSIDKVIDATTLETVENALEVRTNDVAEVTIKTREKICFDEFKVNPTTGRFVLVDEYDVSGGGIISGLANLKEEATKFVKDDKEMIVHCFDEYYYSLSEGLIRKHSKYKRTFKVGDAVPIEGETYSYPESFDVIDINGKLVAKVRKGQLSDLVDIDQYIYSELPIITADGFYLKVNSIDEFKDFKNELVQLQKNDNFHLAMFANKWYDISANRSFKFTV | failed
9 | MTARPDSSGASSRHDRLQRHPTPNARNSLWRWTDAKHPLRVALNYVVIVLARISPSLHAKNWLLARIGVTVGDGVAWGLESTPDVFWPELVTVGDDAIIGYDATLLCHEFLHDEYRTGAVVVEDRAMIGAGAVVLPGVTIGADAQVAANSLVTADVPPGETVAGVPAAPTGD | failed
10 | MTARSNSSSSGTSSNKRPRTSGSSPSSKSRRGSGSGPAGRSRKTTSAVSYPTNSARRASETSEERTGSAFRAVGSGLGTLVSATAHGVGSVTRAVARTLHREHDDEEFDAVDDAFSSEETVVTNRKRKPSRMTKTKKNLFDDDIEDQHDDFDEEAGLGRFTLALSDESVDSIGLILIALAFIVGASVWFDIAGPIGAAIAAGVHFVIGAGALILPLALVAIAIALMLGKLPEPDHQPRLVLGTSVIAISMLGLIHLFAGDPADWQGRTHAGGIVGAYSGGMIARGFSVYLAIPLLVLVIIYGALRINNVTVKELFEAIQDTVQGLRDDSEDEDDPLYADADAEIEARSRGEKLHRPQPRREKPRPAPERRRMSAPLVDDVDEDVVSRPLFDDPSTAQSQKSSVETQRAARDVSETDEFPAVDEPTVVVPRKPSAPRMSLPQTPVTDVEAAADVVAAGRKAVQDAVKARESHNVGAALAPSTPAQPYEAPESHYAVPSTQLLIPGKEAKTHSEANDRMIEAISDVFAEFKVDAHVTGFSRGPTVTRYEVELGPGVKVSKITNLQSNLAYAVATDNVRLLTPIPGKSAVGIEVPNTDREMVRLGDVLNSESVHSDHDPMLIGLGKDIEGDFVAHSVQKMPHLLVAGSTGSGKSAFVNSLLVSLLTRATPEDVRLILVDPKMVELTPYEGIPHLITPIITQPKKAAAALQWLVEEMEQRYMDMKSTRVRHIKDFNRKVKSGEIQAPLGSQREYHPYPYIVCVVDELADLMMTAPKEIEDSIVRITQKARAAGIHLVLATQRPSVDVVTGLIKTNVPSRLAFATSSLTDSRVILDQAGAEKLIGMGDGLFIPQGGRPQRIQGAFVTDEEIQAVVDAAKAQGEPNYTEGVTEDKAAEAKKDIDADIGNDLEDLLQAVELVVTAQLGSTSMLQRKLRIGFAKAGRLMDLMETRGIVGPSEGSKAREVLVKPEELETTLWMIKGAKPEDAPKEDDWQSADSGVSDASDPSHGERAAYNPSSNAF | failed
11 | MTASNPTILALDFDGVICDGLIEYFEVAWRTYCQIWSPAENTPPDDLALRFYRLRPVIETGWEMPVLIKALVDGNSDDQILQEWTSITPKILLDDKLQAKEIATKLDGLRDEWIANDLDGWLSLHRFYQGVIEKLKIAVASEVKLYIVTTKEGRFVEQLLHQEGVDLPRDAIFGKEVKRPKYEIIRELIQAADHEPVSLWFVEDRIKTLQLVQQQSDLEDVKLFLADWGYNTQSERKAAQSDPRIQLLSLSQFAKDFPGWV | failed
12 | MTASPLLTAFLPLALGIIMLGLGLSLTLADFARVVKYPKPVVVGLVCQILLLPLVCFLIANGFGLESALAVGLMLLAASPGGTTANLFSHLAHGDVALNITLTAVNSLIAILTMPLLVNLSLSWFMASDQAIPLQFAKVMQVFAIVLLPVALGMLIRHFAPAFAARMEKPMKLVAALFLAFTIVLALAKDWQTVVEYAPVVGLAALLFNLLSLTVGYWVPRLLNISKRQAIAIGMEIGIHNGTLAIALALSPSLLNNATMAVPAALYSLIMFFTAAGFGWWVSRGHVAAEPKGETVN | failed
13 | MTATPGTTVPAPIMQTTDNSLTWLLQNLLDRTPGTRHALVLSRDGLRLCWTEHLTLDRADQLAAICSGIQALAQGASVEFGNGTGGVRHSMTEFHGGLLFIVEAGEGAHLAVVAVEDADPGVVGHQMTELVEQIGEHLRAEPRHAVPGGSSS | failed
